Data as given in patent US20150044169, “METHODS OF […] A […] FAMILY VIRAL INFECTION, COMPOSITIONS FOR […] A […] FAMILY VIRAL INFECTION, AND […] ASSAYS FOR […] COMPOSITIONS FOR […] A […] FAMILY VIRAL INFECTION” (The Board of Trustees of the Leland Stanford Junior …, published 2015).

Target: Gus (beta-glucuronidase) control (UniProt P05804 P05804:1-603)
Assay: MITOMI Gus-his negative control
Conditions: tags: C-terminal 6xHis (Roche Gus-his vector); label: Cy3
Description: For each experiment, an image was taken after MITOMI and the final PBS wash. This was used to determine the concentration of surface bound protein (FITC channel) as well as surface bound target RNA (Cy3 channel). […] Data from multiple data points were averaged, and their standard deviations calculated. Results were then normalized to 1. Between 10-20 replicates were included for each probe tested. A control protein, Gus-his (Roche) was included in each experiment and subjected to the same analysis. When present, detected signal with Gus-his was used for background subtraction.
A microarray of Cy3-labeled target RNA sequences was used to program a microfluidic device, and binding of bodiby-labeled proteins expressed on the device to the RNA sequences was assayed. Results represent the ratio of bound RNA (median Cy3 signal) to expressed protein (median bodipy signal). Normalized mean values for 10-20 replicates measured in two independent experiments are shown. Error bars represent standard deviation. The grey bars represent binding of HuR-his and the clear bars that of Gus-his, used as a negative control.

Gus (beta-glucuronidase) control, sequence (P05804 whole entry, one chain of several): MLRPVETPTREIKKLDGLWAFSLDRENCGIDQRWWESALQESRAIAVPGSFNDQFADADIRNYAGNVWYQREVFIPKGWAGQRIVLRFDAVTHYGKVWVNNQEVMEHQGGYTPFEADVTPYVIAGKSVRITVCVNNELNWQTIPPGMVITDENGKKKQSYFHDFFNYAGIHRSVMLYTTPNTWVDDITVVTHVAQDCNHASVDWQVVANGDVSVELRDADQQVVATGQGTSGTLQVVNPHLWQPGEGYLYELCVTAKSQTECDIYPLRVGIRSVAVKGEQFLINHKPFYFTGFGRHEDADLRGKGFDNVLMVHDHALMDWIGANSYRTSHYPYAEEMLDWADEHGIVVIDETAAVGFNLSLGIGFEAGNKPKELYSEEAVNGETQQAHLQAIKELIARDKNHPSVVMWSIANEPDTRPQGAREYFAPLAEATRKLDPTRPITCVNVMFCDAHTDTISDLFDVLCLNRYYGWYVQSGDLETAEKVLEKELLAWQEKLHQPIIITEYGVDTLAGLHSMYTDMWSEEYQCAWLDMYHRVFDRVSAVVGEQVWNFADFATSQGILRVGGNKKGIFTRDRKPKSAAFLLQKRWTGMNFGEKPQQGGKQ

B1: 4A (ssRNA)
RNA: AUUUAUUUAUUUAUUUA
B1: no binding.
